Source: patent US20230203117A1

Biological target: IL-10Rβ on human primary monocytes and CD8 T cells (human) (UniProt Q08334)
Assay: cell-based or functional assay

Sequence of IL-10Rβ on human primary monocytes and CD8 T cells (human) (Q08334 20-325): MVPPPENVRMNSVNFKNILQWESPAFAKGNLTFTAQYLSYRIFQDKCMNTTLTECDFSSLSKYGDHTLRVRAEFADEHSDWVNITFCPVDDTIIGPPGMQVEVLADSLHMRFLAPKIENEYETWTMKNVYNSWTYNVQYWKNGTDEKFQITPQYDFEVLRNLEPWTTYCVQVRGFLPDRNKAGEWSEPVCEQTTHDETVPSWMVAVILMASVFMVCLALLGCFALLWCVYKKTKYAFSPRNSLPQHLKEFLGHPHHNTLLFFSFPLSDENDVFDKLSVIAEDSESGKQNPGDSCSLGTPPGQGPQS
Sequence of wild type IL-10 dimer (WTD) (P22301 other isoform, or with tags, fused parts or gaps): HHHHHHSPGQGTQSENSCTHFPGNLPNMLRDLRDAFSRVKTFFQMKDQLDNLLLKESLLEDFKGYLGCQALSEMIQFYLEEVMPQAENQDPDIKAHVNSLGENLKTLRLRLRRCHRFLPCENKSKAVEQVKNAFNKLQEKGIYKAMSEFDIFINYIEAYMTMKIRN

Row | granzyme B production in CD8 T cells, flow cytometry | reduction of HLA-DR surface levels in human primary monocytes | pSTAT1 and pSTAT3 in human CD8 T cells, amplitude of activation (% of the dimeric molecules) | pSTAT1 and pSTAT3 in human monocytes, amplitude of activation (percentage of WTD) | Substance
1 | 2.5 fold | 50% | – | – | wild type IL-10 dimer (WTD) (from UniProt P22301 19-178) (ligand)
2 | – | 20% | < 25 | < 50 | wild type monomeric IL-10 (WTM), recombinant (ligand)
